Data: patent publication US20100150950A1, “HUMAN ANTIBODIES THAT BIND CD70 AND USES THEREOF” (Medarex, Inc., priority 2006, published 2010)

How the values were obtained:
[1] = tested on: monkey rhesus CD70+ B lymphoma cell line LCL8664; experiment: FACS cross-reactivity with rhesus B lymphoma cells; type: binding; conditions: antibody 1 μg/ml
Method: FACS analysis was also employed to access the ability of the anti-CD70 antibody 69A7 cross reacting with the monkey rhesus CD70+B lymphoma cell line, LCL8664 (ATCC#: CRL-1805). Binding of the HuMAb 69A7 anti-CD70 human monoclonal antibody was assessed by incubating 1×10^5 cells with 69A7 at a concentration of 1 μg/ml. The cells were washed and binding was detected with a FITC-labeled anti-human IgG Ab. An isotype control antibody was used as a negative control. Flow cytometric analyses were performed using a FACSCalibur flow cytometry (Becton Dickinson, San Jose, Calif.).

[2] = target: T1, CD70 expressed on the surface of Raji lymphoma cells (Homo sapiens, UniProt P32970); experiment: Flow cytometry binding to Raji cells; conditions: antibody 10 μg/ml
T1 construct: endogenous in cells; host or cells: Daudi (ATCC CCL-213), HuT 78 (TIB-161), Raji (CCL-86), Granta 519 (DSMZ 342)
T1 sequence (P32970 1-193): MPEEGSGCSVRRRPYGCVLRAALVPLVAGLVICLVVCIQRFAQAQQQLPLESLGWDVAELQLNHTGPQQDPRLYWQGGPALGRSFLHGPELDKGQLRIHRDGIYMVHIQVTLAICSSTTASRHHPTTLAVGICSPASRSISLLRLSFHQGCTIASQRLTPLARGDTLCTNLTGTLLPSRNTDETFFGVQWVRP
Method: Anti-CD70 antibodies were tested for binding to lymphoma cells expressing CD70 on their cell surface by flow cytometry.
The lymphoma cell lines Daudi (ATCC Accession No. CCL-213), HuT 78 (ATCC Accession No. TIB-161) and Raji (ATCC Accession No. CCL-86) were each tested for antibody binding. Binding of the HuMAb 2H5 anti-CD70 human monoclonal antibody was assessed by incubating 1×10^5 cells with 2H5 at a concentration of 1 μg/ml. The cells were washed and binding was detected with a FITC-labeled anti-human IgG Ab. […] Flow cytometric analyses were performed using a FACSCalibur flow cytometry (Becton Dickinson, San Jose, Calif.). The anti-CD70 monoclonal antibody 2H5 bound to the lymphoma cell lines Daudi, HuT 78 and Raji, as measured by the mean fluorescent intensity (MFI) of staining.
The lymphoma cell lines Raji and Granta 519 (DSMZ Accession No. 342) were tested for binding of the HuMAb anti-CD70 human monoclonal antibody 2H5 at varying concentrations. Binding of the anti-CD70 human monoclonal antibodies was assessed by incubating 5×10^5 cells with antibody at a starting concentration of 50 μg/ml and serially diluting the antibody at a 1:3 dilution. An isotype control antibody was used as a negative control. The cells were washed and binding was detected with a PE-labeled anti-human IgG Ab. […]

SU-DHL-6 cells = experiment: ADCC fluorescence cytotoxicity assay, SU-DHL-6; type: cell-based, human; conditions: target to effector ratio 1:50
Method: (§1) In this example, a defucosylated and non-defucosylated anti-CD70 monoclonal antibody was tested for the ability to kill CD70+cells in the presence of effector cells via antibody dependent cellular cytotoxicity (ADCC) in a fluorescence cytotoxicity assay
(§2) Human Anti-CD70 monoclonal antibody 2H5 was defucosylated as described above. Human effector cells were prepared from whole blood as follows. Human peripheral blood mononuclear cells were purified from heparinized whole blood by standard Ficoll-paque separation. The cells were resuspended in RPMI1640 media containing 10% FBS (culture media) and 200 U/ml of human IL-2 and incubated overnight at 37° C. The following day, the cells were collected and washed once in culture media and resuspended at 2×10^7 cells/ml. […]
(§3) The CD70+ cell lines ARH-77 (human B lymphoblast leukemia; ATCC Accession No. CRL-1621), MEC-1 (human chronic B cell leukemia; DSMZ Accession No. ACC 497), SU-DHL-6 (human B cell lymphoma, DSMZ Accession No. Acc572), IM-9 (human B lymphoblast; ATCC Accession No. CCL-159) and HuT 78 (human cutaneous lymphocyte lymphoma; ATCC Accession No. TIB-161), were tested for antibody specific ADCC to the defucosylated and non-defucosylated human anti-CD70 monoclonal antibody 2H5 using the Delfia fluorescence emission analysis as follows. […]

MEC-1 cells = experiment: ADCC fluorescence cytotoxicity assay, MEC-1; type: cell-based, human; conditions: target to effector ratio 1:50
Method: as §1, §2, §3

Molecule	cross-reactivity with monkey CD70+ B lymphoma cells [1]	binding to Raji cells (MFI) [2]	ADCC, % specific lysis of SU-DHL-6 (SU-DHL-6 cells)	ADCC, % specific lysis of MEC-1 (MEC-1 cells)
anti-CD70 human monoclonal antibody 69A7 (antibody, V domains shown, Human IgG from hybridoma; also called HuMAb 69A7; FITC-conjugated 69A7) VH: QVQLQESGPGLVKPSETLSLTCTVSGGSVSSDYYYWSWIRQPPGKGLEWLGYIYYSGSTNYNPSLKSRVTISVDTSKNQFSLKLRSVTTADTAVYYCARGDGDYGGNCFDYWGQGTLVTVSS VL: EIVLTQSPATLSLSPGERATLSCRASQSVSSYLAWYQQKPGQAPRLLIFDASNRATGIPARFSGSGSGTDFTLTISSLEPEDFAVYYCQQRSNWPLTFGGGTKVEIK	cross-reacts	bound	–	–
2H5 NF: 2H5 HuMAb lacking fucosyl residues, expressed in CHO cell line Ms704-PF (antibody, V domains shown) VH: QVQLVESGGGVVQPGRSLRLSCAASGFTFSSYIMHWVRQAPGKGLEWVAVISYDGRNKYYADSVKGRFTISRDNSKNTLYLQMNSLRAEDTAVYYCARDTDGYDFDYWGQGTLVTVSS VL: EIVLTQSPATLSLSPGERATLSCRASQSVSSYLAWYQQKPGQAPRLLIYDASNRATGIPARFSGSGSGTDFTLTISSLEPEDFAVYYCQQRTNWPLTFGGGTKVEIK	–	–	increased percentage of specific lysis	increased percentage of specific lysis
